# Values joined by “and” are separate entries in the source; they are usually repeats but may differ in a detail not shown here. Equal values may be shown once.
# B1: HopQ1-D107A_D108A (recombinant, 6 × His) (natural protein)
# chain: MHRPITAGHTTSRLILDQLKQISRTPSESSVQSALSQQASMSSPVLERSKSAPALLTAAQRTMLAQVGACNSHLTSDENMAINELRLHKPRLPKDTWFFTDPNKDPAAVVTYTLGKQLQAEGFVHITDVVATLGDAEVRSQRAEMAKGVFNKLGLHDVHVSRGRDYAMNSLQSKEHAKFLLEGHALRAGPGEIHRDSLQDMSRRLARAPHGVGIVVIAGMSDINALITTCPDMVRERVDDITIMGGVEPLKDADGFVQPDARAYNNATDMDAARSLYRKAQELGIPLRIVTKEAAYKTAVSPSFYEGIAGSGHPVGHYLRDVQKSALKGLWEGIQAGLLPGLDDSWFFRTFMPNAQIEAAQLDKNKESSFEDIWPKVTKLNLYDPLTLLASVPGAAKLLFKPKAIHTEGFGVVEQVGPDDVTHPEKAKLLMSALAKSALVQSTVAPD
# notes: HopQ1 of Pseudomonas savastanoi pv. phaseolicola 1448A, GenBank AAZ37975.1, with D107A and D108A; source: E. coli BL21 Rosetta, purified
# B2: RihA, a pyrimidine-specific ribonucleoside hydrolase from E. coli K-12 (enzyme, UniProt P41409 1-311, looked up)
# chain: MALPILLDCDPGHDDAIAIVLALASPELDVKAITSSAGNQTPEKTLRNVLRMLTLLNRTDIPVAGGAVKPLMRELIIADNVHGESGLDGPALPEPTFAPQNCTAVELMAKTLRESAEPVTIVSTGPQTNVALLLNSHPELHSKIARIVIMGGAMGLGNWTPAAEFNIYVDPEAAEIVFQSGIPVVMAGLDVTHKAQIHVEDTERFRAIGNPVSTIVAELLDFFLEYHKDEKWGFVGAPLHDPCTIAWLLKPELFTSVERWVGVETQGKYTQGMTVVDYYYLTGNKPNATVMVDVDRQGFVDLLADRLKFYA
# notes: RihA (also known as YbeK), pyrimidine-specific ribonucleoside hydrolase of E. coli K-12; also called YbeK; source: E. coli BL21 Rosetta, purified
# Experiments:
# [1] = biological target: Recombinant HopQ1 with a C-terminal 6 × His epitope (Pseudomonas savastanoi pv. phaseolicola 1448A (former Pseudomonas syringae pv. phaseolicola 1448A)) (UniProt Q48BD8); test: SEC-MALS; native (non-reducing) conditions; Superdex 200 10/300GL, 100 mM Tris-HCl, 150 mM NaCl, pH 8.0, 4 °C; 0.4 mg protein per run
# [2] = biological target: Recombinant HopQ1 with a C-terminal 6 × His epitope (Pseudomonas savastanoi pv. phaseolicola 1448A (former Pseudomonas syringae pv. phaseolicola 1448A)) (UniProt Q48BD8); test: SEC; gel filtration on Superdex 200, reducing conditions with chelating agent (1 mM EDTA)
# [3] = biological target: HopQ1 fused to ECFP or EYFP, expressed in N. benthamiana (Pseudomonas savastanoi pv. phaseolicola 1448A (former Pseudomonas syringae pv. phaseolicola 1448A)) (UniProt Q48BD8); test: FRET or BRET; FLIM-FRET in nuclei of N. benthamiana leaf cells; donor fused to ECFP, acceptor fused to EYFP, transiently co-expressed; eight to ten nuclei per combination
# [4] = biological target: the molecule itself; test: SEC; gel filtration on Superdex 200 of the calcium-site mutant; 'all the conditions tested' (not listed for the mutant)
# [5] = biological target: the molecule itself; test: SEC; gel filtration on Superdex 200, reducing conditions with chelating agent (1 mM EDTA)
molecule,measurement,setting,value
Recombinant HopQ1 with a C-terminal 6 × His epitope (from UniProt Q48BD8 1-447) (natural protein),stoichiometry N,[1],2 and 3
same,stoichiometry N,[2],2
Nt14-3-3a-ECFP (natural protein),FRET efficiency,[3],14.2%
B1,stoichiometry N,[4],2
B2,stoichiometry N,[5],4

# From article PMC11685791, “Noncanonical calcium binding motif controls folding of HopQ1, a Pseudomonas syringae type III secretion effector, in a pH-dependent manner” (Scientific Reports, 2024)
